In general, Kd refers to the free concentration of one partner at which half of the binding sites on the other are occupied at equilibrium, for simple one-to-one binding.

To fix the notation:
B1: wild-type N-terminal domain of major ampullate spidroin 1 (MaSp1) from Euprosthenops australis [Euprosthenops australis] / itself (parent)
chain: SHTTPWTNPGLAENFMNSFMQGLSSMPGFTASQLDDMSTIAQSMVQSIQSLAAQGRTSPNKLQALNMAFASSMAEIAASEEGGGSLSTKTSSIASAMSNAFLQTTGVVNQPFINEITQLVSMFAQAGMNDVSA

The variants in this test derive from B1. Kind of test: high-resolution SEC. The conditions noted are these: with itself; read off a plot.
In the case of chain 1 M16L M20L M37L M44L M73L, the Kd came out at 1000 nM. For chain 1 M16L M20L M37L, the Kd is 750 nM.

With chain 1 M16L M20L, the equilibrium dissociation constant (Kd) amounted to 160 nM. The result for chain 1 M16L M20L M37L M44L reads 660 nM.

Source of the values: publication PMC6763431, “Methionine in a protein hydrophobic core drives tight interactions required for assembly of spider silk” (Nature Communications, 2019).
